Legend:
[1] = target: T1, z-VRPR-FMK (not fully specified)
T1 chain: VRPR

[2] = target: T2, probe 5 (FITC-LRSR-AOMK)
T2 chain: LRSR

[3] = target: T3, FLAG-A20, P21580
T3 chain: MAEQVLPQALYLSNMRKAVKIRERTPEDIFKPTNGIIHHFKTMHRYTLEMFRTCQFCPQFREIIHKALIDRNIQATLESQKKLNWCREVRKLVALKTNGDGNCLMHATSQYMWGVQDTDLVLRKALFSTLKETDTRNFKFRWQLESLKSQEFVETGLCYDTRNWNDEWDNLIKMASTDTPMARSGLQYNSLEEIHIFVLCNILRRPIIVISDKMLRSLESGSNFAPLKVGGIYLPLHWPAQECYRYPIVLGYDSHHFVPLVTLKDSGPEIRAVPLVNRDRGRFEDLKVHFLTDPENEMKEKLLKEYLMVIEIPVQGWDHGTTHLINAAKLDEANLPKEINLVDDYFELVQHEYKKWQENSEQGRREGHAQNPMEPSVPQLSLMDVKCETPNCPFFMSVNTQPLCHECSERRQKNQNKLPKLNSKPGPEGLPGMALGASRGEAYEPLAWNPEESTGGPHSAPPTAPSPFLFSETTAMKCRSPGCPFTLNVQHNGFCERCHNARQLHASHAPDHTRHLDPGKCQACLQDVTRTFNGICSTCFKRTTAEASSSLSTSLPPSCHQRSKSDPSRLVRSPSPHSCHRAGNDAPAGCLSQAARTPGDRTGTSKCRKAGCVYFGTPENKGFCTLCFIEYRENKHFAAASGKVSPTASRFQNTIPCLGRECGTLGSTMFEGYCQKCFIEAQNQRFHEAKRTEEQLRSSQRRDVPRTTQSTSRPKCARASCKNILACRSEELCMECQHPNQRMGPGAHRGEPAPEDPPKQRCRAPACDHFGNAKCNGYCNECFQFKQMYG

B1: MALT1 (in vitro cleavage assay of FIG. 3C) (protein)
chain: MSLLGDPLQALPPSAAPTGPLLAPPAGATLNRLREPLLRRLSELLDQAPEGRGWRRLAELAGSRGRLRLSCLDLEQCSLKVLEPEGSPSLCLLKLMGEKGCTVTELSDFLQAMEHTEVLQLLSPPGIKITVNPESKAVLAGQFVKLCCRATGHPFVQYQWFKMNKEIPNGNTSELIFNAVHVKDAGFYVCRVNNNFTFEFSQWSQLDVCDIPESFQRSVDGVSESKLQICVEPTSQKLMPGSTLVLQCVAVGSPIPHYQWFKNELPLTHETKKLYMVPYVDLEHQGTYWCHVYNDRDSQDSKKVEIIIDELNNLGHPDNKEQTTDQPLAKDKVALLIGNMNYREHPKLKAPLVDVYELTNLLRQLDFKVVSLLDLTEYEMRNAVDEFLLLLDKGVYGLLYYAGHGYENFGNSFMVPVDAPNPYRSENCLCVQNILKLMQEKETGLNVFLLDMCRKRNDYDDTIPILDALKVTANIVFGYATCQGAEAFEIQHSGLANGIFMKFLKDRLLEDKKITVLLDEVAEDMGKCHLTKGKQALEIRSSLSEKRALTDPIQGTEYSAESLVRNLQWAKAHELPESMCLKFDCGVQIQLGFAAEFSNVMIIYTSIVYKPPEIIMCDAYVTDFPLDLDIDPKDANKGTPEETGSYLVSKDLPKHCLYTRLSSLQKLKEHLVFTVCLSYQYSGLEDTVEDKQEVNVGKPLIAKLDMHRGLGRKTCFQTCLMSNGPYQSSAATSGGAGHYHSLQDPFHGVYHSHPGNPSNVTPADSCHCSRTPDAFISSFAHHASCHFSRSNVPVETTDEIPFSFSDRLRISEK
With B1 the “in vitro protease activity measurements (cleavage of fluorescent substrates)” value [1] was “probe 5 and also z-VRPR-FMK did not only inhibit MALT1” and the “in vitro protease activity measurements (cleavage of fluorescent substrates)” value [2] was “probe 5 and also z-VRPR-FMK did not only inhibit MALT1”.

B2: recombinant Caspase-8 (protein)
chain: SESQTLDKVYQMKSKPRGYCLIINNHNFAKAREKVPKLHSIRDRNGTHLDAGALTTTFEELHFEIKPHDDCTVEQIYEILKIYQLMDHSNMDCFICCILSHGDKGIIYGTDGQEAPIYELTSQFTGLKCPSLAGKPKVFFIQACQGDNYQKGIPVETDSEEQPYLEMDLSSPQTRYIPDEADFLLGMATVNNCVSYRNPAEGTWYIQSLCQSLRERCPRGDDILTILTEVNYEVSNKDDKKNMGKQMPQPTFTLRKKLVFPSD
For B2, the “in vitro protease activity measurements (DEVD-AMC cleavage)” value [2] was “As expected, Caspase 8 activity was not affected by the diagnostic inhibitors of MALT1 of the present invention”.

B3: FLAG-MALT1 wt (MALT1 Isoform B, overexpressed in Jurkat T cells) (protein)
chain: SLLGDPLQALPPSAAPTGPLLAPPAGATLNRLREPLLRRLSELLDQAPEGRGWRRLAELAGSRGRLRLSCLDLEQCSLKVLEPEGSPSLCLLKLMGEKGCTVTELSDFLQAMEHTEVLQLLSPPGIKITVNPESKAVLAGQFVKLCCRATGHPFVQYQWFKMNKEIPNGNTSELIFNAVHVKDAGFYVCRVNNNFTFEFSQWSQLDVCDIPESFQRSVDGVSESKLQICVEPTSQKLMPGSTLVLQCVAVGSPIPHYQWFKNELPLTHETKKLYMVPYVDLEHQGTYWCHVYNDRDSQDSKKVEIIIDELNNLGHPDNKEQTTDQPLAKDKVALLIGNMNYREHPKLKAPLVDVYELTNLLRQLDFKVVSLLDLTEYEMRNAVDEFLLLLDKGVYGLLYYAGHGYENFGNSFMVPVDAPNPYRSENCLCVQNILKLMQEKETGLNVFLLDMCRKRNDYDDTIPILDALKVTANIVFGYATCQGAEAFEIQHSGLANGIFMKFLKDRLLEDKKITVLLDEVAEDMGKCHLTKGKQALEIRSSLSEKRALTDPIQGTEYSAESLVRNLQWAKAHELPESMCLKFDCGVQIQLGFAAEFSNVMIIYTSIVYKPPEIIMCDAYVTDFPLDLDIDPKDANKGTPEETGSYLVSKDLPKHCLYTRLSSLQKLKEHLVFTVCLSYQYSGLEDTVEDKQEVNVGKPLIAKLDMHRGLGRKTCFQTCLMSNGPYQSSAATSGGAGHYHSLQDPFHGVYHSHPGNPSNVTPADSCHCSRTPDAFISSFAHHASCHFSRSNVPVETTDEIPFSFSDRLRISEK
With B3 the “MALT1 cleavage of A20, analyzed by western blot” value [3] was “only wt MALT1 is capable of cleaving its substrates”.

B4: FLAG-MALT1 active site mutant C464A (C453A in Isoform B) (protein)
chain: SLLGDPLQALPPSAAPTGPLLAPPAGATLNRLREPLLRRLSELLDQAPEGRGWRRLAELAGSRGRLRLSCLDLEQCSLKVLEPEGSPSLCLLKLMGEKGCTVTELSDFLQAMEHTEVLQLLSPPGIKITVNPESKAVLAGQFVKLCCRATGHPFVQYQWFKMNKEIPNGNTSELIFNAVHVKDAGFYVCRVNNNFTFEFSQWSQLDVCDIPESFQRSVDGVSESKLQICVEPTSQKLMPGSTLVLQCVAVGSPIPHYQWFKNELPLTHETKKLYMVPYVDLEHQGTYWCHVYNDRDSQDSKKVEIIIDELNNLGHPDNKEQTTDQPLAKDKVALLIGNMNYREHPKLKAPLVDVYELTNLLRQLDFKVVSLLDLTEYEMRNAVDEFLLLLDKGVYGLLYYAGHGYENFGNSFMVPVDAPNPYRSENCLCVQNILKLMQEKETGLNVFLLDMARKRNDYDDTIPILDALKVTANIVFGYATCQGAEAFEIQHSGLANGIFMKFLKDRLLEDKKITVLLDEVAEDMGKCHLTKGKQALEIRSSLSEKRALTDPIQGTEYSAESLVRNLQWAKAHELPESMCLKFDCGVQIQLGFAAEFSNVMIIYTSIVYKPPEIIMCDAYVTDFPLDLDIDPKDANKGTPEETGSYLVSKDLPKHCLYTRLSSLQKLKEHLVFTVCLSYQYSGLEDTVEDKQEVNVGKPLIAKLDMHRGLGRKTCFQTCLMSNGPYQSSAATSGGAGHYHSLQDPFHGVYHSHPGNPSNVTPADSCHCSRTPDAFISSFAHHASCHFSRSNVPVETTDEIPFSFSDRLRISEK
For B4, the “MALT1 cleavage of A20, analyzed by western blot” value [3] was “only wt MALT1 is capable of cleaving its substrates (the mutant does not cleave)”.
